# Assay results as given in patent publication US20120015885A1 (published 2012).
# B1: antCN27 (peptide)
# peptide: RQIKIWFQNRRMKWKKRPPKLGQIGRSKRVVIEDDRIDDVLK
# notes: a final (K) of ant was replaced by the first K of the CN peptide in the fusion
# B2: CN20 (peptide)
# peptide: KRPPKLGQIGRSKRVVIEDD
# B3: ant (peptide)
# peptide: RQIKIWFQNRRMKWK
# notes: whether the free peptide had it is not clear; also called ant peptide; penetratin
# B4: CN19a2v (peptide)
# peptide: KRAPKLGQIGRVKAVVIED
# B5: CN27 (peptide)
# peptide: KRPPKLGQIGRSKRVVIEDDRIDDVLK
# notes: also called CaM-KIINtide
# B6: CN19 (peptide)
# peptide: KRPPKLGQIGRSKRVVIED
# B7: CN21 (peptide)
# peptide: KRPPKLGQIGRSKRVVIEDDR
# B8: CN19 R14A (peptide)
# peptide: KRPPKLGQIGRSKAVVIED
# B9: CN19o (peptide)
# peptide: KRAPKLGQIGRQKAVDIED
# B10: V16D mutant of CN19a2v (peptide)
# peptide: KRAPKLGQIGRVKAVDIED
# B11: V12Q mutant of CN19a2v (peptide)
# peptide: KRAPKLGQIGRQKAVVIED
# Columns and labels:
# [1] = target: 2-chloro-(ε-amino-Lys75)-[6-(4-N,N-diethylaminophenyl)-1,3,5-triazin-4-yl]calmodulin (TA-CaM) (UniProt P0DP23 2-149); test: competition with CBD for TA-CaM, fluorescence
# [2] = target: calcium/calmodulin (CaM)-dependent protein kinase II (CaMKII) (UniProt P11275 1-478); test: cell-based or functional assay
# calcium/calmodulin (CaM)-dependent protein kinase II (CaMKII), sequence (P11275 whole entry): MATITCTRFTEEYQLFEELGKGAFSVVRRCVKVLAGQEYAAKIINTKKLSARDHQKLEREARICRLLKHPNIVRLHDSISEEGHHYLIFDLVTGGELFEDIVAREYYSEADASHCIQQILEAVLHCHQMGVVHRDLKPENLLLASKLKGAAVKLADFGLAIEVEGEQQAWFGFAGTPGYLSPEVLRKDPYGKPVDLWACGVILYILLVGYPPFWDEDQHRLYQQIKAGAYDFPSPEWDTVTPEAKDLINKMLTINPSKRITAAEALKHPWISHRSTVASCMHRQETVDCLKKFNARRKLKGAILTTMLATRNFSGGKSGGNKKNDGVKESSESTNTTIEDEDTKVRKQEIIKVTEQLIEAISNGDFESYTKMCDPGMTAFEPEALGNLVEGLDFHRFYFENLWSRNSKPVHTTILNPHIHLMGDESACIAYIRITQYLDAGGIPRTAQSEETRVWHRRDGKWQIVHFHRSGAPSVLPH
# CaMKI = test: cell-based or functional assay
# biotinylated CaM = biotinylated CaM (UniProt P0DP23 2-149); test: slot blot with biotinylated CaM (FIG. 9E) and TA-CaM competition (FIG. 9G)
binder,measurement,setting,value
B1,Kd,[1],~1 nM
B2,"IC50, phosphorylation of syntide 2 by CaMKII",[2],~100 nM
B3,Kd,[1],~5 nM
B4,"IC50, CaMKI activity",CaMKI,~18000 nM
same,"IC50, CaMKII activity towards syntide 2",[2],~20 nM
same,fold increase of potency against CN19,[2],~5 fold
B5,binding result,biotinylated CaM,no binding
B6,"IC50, CaMKI activity",CaMKI,~36000 nM
same,"IC50, phosphorylation of syntide 2 by CaMKII",[2],~100 nM
B7,"IC50, phosphorylation of syntide 2 by CaMKII",[2],~100 nM
B8,"IC50, CaMKII activity",[2],< 10 nM
same,fold increase of potency against CN19 wild type,[2],> 10 fold
B9,"IC50, CaMKI activity",CaMKI,~38000 nM
same,"IC50, CaMKII activity",[2],~0.75 nM
same,fold increase of potency against CN19,[2],> 125 fold
same,selectivity for CaMKII vs CaMKI,[2],~50000 fold
B10,"IC50, CaMKII activity",[2],~1 nM
B11,"IC50, CaMKII activity",[2],~1 nM
